The values that follow come from publication PMC6879610 (2019).

Changes are numbered by the printed parent chain.

B1: H4K3_RS73PE Fab (Fab, V domains shown)
VH: KVQLVQSGAELKKPWSSVRVSCKASGGSFSSYAFNWVRQAPGQRLEWLGGIVPLVSSTNYAQRFRGRVTISADPETSTVYLEMTGLTSADTAVYFCAREGEGWFGRPLRAFEFWGQGTLVTVST
VL: EIVLTQSPGTFALSPGERATLSCRASQSVSGGALAWYQQKAGQAPRLLIYDTSGRATGVPGRFSGSGSETDFSLTISRLEPEDFAVYYCQQYGTSQSTFGQGTRLETR
B2: H4K3_5M Fab (Fab, V domains shown)
VH: B1 VH with S28E, F29P, S30E
VL: B1 VL
B3: H4K3_SFS28EPE Fab (Fab, V domains shown)
VH: B1 VH with S28E, F29P, S30E, P74R, E75S
VL: B1 VL
B4: PGZL1.H4K3 IgG (antibody, V domains shown)
VH: B1 VH with P74R, E75S
VL: B1 VL with D51G
B5: H4K3_SFS28EPE IgG (antibody, V domains shown)
VH: B1 VH with S28E, F29P, S30E, P74R, E75S
VL: B1 VL
B6: H4K3_RS73PE IgG (antibody, V domains shown)
VH: B1 VH
VL: B1 VL
B7: H4K3_5M IgG (antibody, V domains shown)
VH: B1 VH with S28E, F29P, S30E
VL: B1 VL

The target of one assay is T1, MPER peptide PDT-081 (HIV-1, biotin at the C-terminus).
T1 chain: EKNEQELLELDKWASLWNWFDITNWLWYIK
The assay is described as follows: BLI. Background: In BLI a coated tip is dipped into the sample, and binding shifts an interference pattern.
The term koff denotes a measure of how fast the partners let go of each other. High values mean fast dissociation, low ones slow dissociation. Turning to B1, the koff turned out to be 0.00051 s⁻¹.

Take B2: the koff is 0.00067 s⁻¹.

In the case of B3, the koff is 0.00054 s⁻¹.

In a further assay the target is T1, MPER peptide PDT-081. The assay is described as follows: ELISA. (In general: ELISA stands for enzyme-linked immunosorbent assay.)
The term EC50 denotes the concentration giving half of the maximal effect. High values mean lower potency in that assay, low ones higher potency in that assay. Consider B4, for which the midpoint of the response, the EC50, lay at 0.039 µg/mL.

In turn, B5 gave an EC50 of 0.076 µg/mL.

As for B6, the EC50 amounted to 0.09 µg/mL.

In turn, B7 returned an EC50 of 0.083 µg/mL. This EC50 and that of the molecule before are within 1.5-fold of each other.
